Measurements taken from the Immune Epitope Database (IEDB).

Experiments:
[1] = target: HLA-A*02:01; assay: IEDB peptide-MHC binding, purified MHC/competitive/radioactivity; filed as Kd, often an IC50 or EC50 that approximates it; ≥ and ≤ were set here for values at or beyond the usual limits of such assays
[2] = target: HLA-A*02:03; assay: as above
[3] = target: HLA-A*02:06; assay: as above
[4] = target: HLA-A*02:17; assay: as above
[5] = target: HLA-B*07:02; assay: as above
[6] = target: HLA-B*35:01; assay: as above
[7] = target: HLA-B*51:01; assay: as above
[8] = target: HLA-B*54:01; assay: as above
[9] = target: HLA-B*53:01; assay: as above
[10] = target: HLA-A*02:02; assay: as above; conditions: source organism: Vaccinia virus WR
[11] = target: HLA-A*03:01; assay: as above; conditions: source organism: Vaccinia virus WR
[12] = target: HLA-A*11:01; assay: as above; conditions: source organism: Vaccinia virus WR
[13] = target: HLA-A*31:01; assay: as above; conditions: source organism: Vaccinia virus WR
[14] = target: HLA-A*33:01; assay: as above; conditions: source organism: Vaccinia virus WR
[15] = target: HLA-A*68:01; assay: as above; conditions: source organism: Vaccinia virus WR
[16] = target: HLA-A*68:02; assay: as above
[17] = target: HLA-B*57:01; assay: as above; conditions: source organism: Dengue virus 1 Brazil/97-11/1997
[18] = target: HLA-A*32:01; assay: as above; conditions: source organism: Dengue virus 1 Brazil/97-11/1997
[19] = target: HLA-B*51:01; assay: IEDB peptide-MHC binding, purified MHC/competitive/fluorescence; filed as Kd, often an IC50 or EC50 that approximates it; ≥ and ≤ were set here for values at or beyond the usual limits of such assays; conditions: source organism: Mycobacterium tuberculosis CDC1551
[20] = target: HLA-A*30:01; assay: IEDB peptide-MHC binding, purified MHC/competitive/radioactivity; filed as Kd, often an IC50 or EC50 that approximates it; ≥ and ≤ were set here for values at or beyond the usual limits of such assays; conditions: source organism: Dengue virus 2 Peru/IQT2913/1996
[21] = target: HLA-B*08:01; assay: as above
[22] = target: HLA-B*15:01; assay: as above; conditions: source organism: Dengue virus 2 Jamaica/1409/1983
[23] = source organism: Dengue virus 1 Singapore/S275/1990
[24] = source organism: Dengue virus 1 Brazil/97-11/1997
[25] = source organism: Vaccinia virus WR
[26] = source organism: Triticum aestivum
[27] = source organism: Mammarenavirus lassaense
[28] = source organism: Mammarenavirus machupoense
[29] = source organism: SARS coronavirus Tor2
[30] = source organism: Mammarenavirus juninense
[31] = source organism: Dengue virus 4 Philippines/H241/1956
[32] = source organism: Dengue virus 2 Jamaica/1409/1983
[33] = source organism: Dengue virus 3 Martinique/1243/1999
[34] = source organism: Dengue virus 3 China/80-2/1980
[35] = source organism: Mammarenavirus guanaritoense
[36] = source organism: Dengue virus 2 Thailand/NGS-C/1944
[37] = source organism: Dengue virus 2 Peru/IQT2913/1996
[38] = source organism: Dengue virus 3 Sri Lanka/1266/2000
[39] = source organism: Hepacivirus hominis

TLMLLALIAV gave a Kd [1, 23] of 7.52 nM, a Kd [2, 24] of 29.1 nM and a Kd [3, 24] of 52.7 nM. It also gave a Kd [4, 23] of 9100 nM.
TPVSMTYLY was tested, and the Kd [5, 25] was 170 nM, the Kd [6, 25] was 0.0662 nM and the Kd [7, 25] was at least 77500 nM. It also gave a Kd [8, 25] of 972 nM.
LPYPQPQPF was tested, and the Kd [5, 26] was 69.3 nM, the Kd [6, 26] was 2.53 nM and the Kd [7, 26] was 2.85 nM. It also gave a Kd [9, 26] of 16.1 nM and a Kd [8, 26] of 742 nM.
YPSMFEKHI was tested, and the Kd [5, 27] was 16300 nM, the Kd [6, 27] was 898 nM and the Kd [7, 27] was 525 nM. It also gave a Kd [9, 27] of 228 nM and a Kd [8, 27] of at least 20500 nM.
With MPALTIACM the Kd [5, 28] was 142 nM, the Kd [6, 28] was 5.23 nM and the Kd [7, 28] was 3700 nM. It also gave a Kd [9, 28] of 25.7 nM and a Kd [8, 28] of 836 nM.
TPLVQPVGAL was tested, and the Kd [5, 29] was 86.9 nM, the Kd [6, 29] was 5270 nM and the Kd [7, 29] was 2340 nM. The Kd [9, 29] was 1720 nM and the Kd [8, 29] was 494 nM.
MVIENGILKK was tested, and the Kd [1, 25] was at least 69400 nM, the Kd [10] was at least 70000 nM and the Kd [2, 25] was at least 70400 nM. For the same sequence, the Kd [3, 25] was at least 69800 nM, the Kd [11] was 38.3 nM and the Kd [12] was 12.3 nM. The Kd [13] was 4860 nM, the Kd [14] was at least 35100 nM and the Kd [15] was 14.9 nM. It also gave a Kd [16, 25] of 11200 nM, a Kd [5, 25] of at least 69600 nM and a Kd [6, 25] of at least 30300 nM. The Kd [7, 25] was at least 69600 nM, the Kd [9, 25] was at least 69900 nM and the Kd [8, 25] was at least 69900 nM.
VLSIVSLFPL gave a Kd [1, 23] of 8.47 nM, a Kd [4, 23] of 8 nM and a Kd [17] of 108 nM.
HPDMDSMMI was tested, and the Kd [5, 30] was 806 nM, the Kd [6, 30] was 1490 nM and the Kd [7, 30] was 3310 nM. It also gave a Kd [9, 30] of 167 nM and a Kd [8, 30] of at least 68400 nM.
IPFIAYFVLM gave a Kd [1, 25] of 1330 nM, a Kd [10] of 3190 nM and a Kd [2, 25] of 2050 nM. For the same sequence, the Kd [3, 25] was 7870 nM, the Kd [11] was 654 nM and the Kd [12] was 4520 nM. For the same sequence, the Kd [13] was 652 nM, the Kd [14] was 1470 nM and the Kd [15] was 1480 nM. The Kd [16, 25] was 9330 nM, the Kd [5, 25] was at least 39600 nM and the Kd [6, 25] was 1210 nM. The Kd [7, 25] was 2230 nM, the Kd [9, 25] was 1300 nM and the Kd [8, 25] was 2000 nM.
Work on TMFGGVSWMV yielded a Kd [1, 31] of 4.46 nM, a Kd [2, 31] of 65.1 nM and a Kd [3, 31] of 2.25 nM. The Kd [4, 31] was 338 nM and the Kd [16, 31] was 5.34 nM.
LPFTLGIMAI showed a Kd [5, 29] of 743 nM, a Kd [6, 29] of 4980 nM and a Kd [7, 29] of 1210 nM. The Kd [9, 29] was 487 nM and the Kd [8, 29] was 150 nM.
IMAIGIVSI showed a Kd [1, 24] of 13.2 nM, a Kd [2, 24] of 13.4 nM and a Kd [4, 24] of 699 nM. The Kd [18] was 77.6 nM.
MLLILCVTQV showed a Kd [1, 32] of 4.15 nM, a Kd [2, 32] of 18.2 nM and a Kd [3, 32] of 7.91 nM. It also gave a Kd [4, 32] of 158 nM.
With LPPGSDEHI the Kd [19] was at least 20000 nM.
FSLGLLCISI showed a Kd [1, 23] of 7.58 nM, a Kd [3, 23] of 2.6 nM and a Kd [4, 23] of 942 nM. It also gave a Kd [7, 23] of at least 40800 nM.
With ILALFLAHYI the Kd [2, 33] was 33.5 nM and the Kd [4, 34] was 266 nM.
Work on ILWENNIKL yielded a Kd [4, 34] of 91.1 nM.
IILEFFLIV showed a Kd [3, 32] of 0.384 nM and a Kd [4, 32] of 89.8 nM.
With LPIFSEFVL the Kd [5, 35] was 217 nM, the Kd [6, 35] was 8.59 nM and the Kd [7, 35] was 18500 nM. It also gave a Kd [9, 35] of 55.8 nM and a Kd [8, 35] of 491 nM.
LPHLCLDYKV showed a Kd [5, 25] of 8450 nM, a Kd [6, 25] of 10100 nM and a Kd [7, 25] of 360 nM. For the same sequence, the Kd [9, 25] was 1080 nM and the Kd [8, 25] was 4.99 nM.
Sequence GMIIMLIPTV has a Kd [1, 36] of 70.9 nM, a Kd [2, 37] of 4.49 nM and a Kd [3, 37] of 94.7 nM. For the same sequence, the Kd [4, 36] was 6590 nM and the Kd [20] was 12600 nM.
ILAGVSLLPV was tested, and the Kd [1, 38] was 4.65 nM, the Kd [2, 33] was 8.16 nM and the Kd [3, 33] was 1.59 nM. The Kd [4, 38] was 1680 nM.
For YTMCSGKFSI, the Kd [1, 31] was 79.8 nM, the Kd [4, 31] was 538 nM and the Kd [16, 31] was 1.45 nM.
Sequence HPLADNKFAL has a Kd [5, 29] of 97.1 nM, a Kd [6, 29] of 185 nM and a Kd [7, 29] of 991 nM. It also gave a Kd [9, 29] of 783 nM and a Kd [8, 29] of 7110 nM.
Work on APIKEFKAKI yielded a Kd [5, 25] of 20.2 nM, a Kd [6, 25] of at least 41400 nM and a Kd [7, 25] of at least 22400 nM. It also gave a Kd [9, 25] of 12000 nM and a Kd [8, 25] of 11200 nM.
Work on YIIRVTTEL yielded a Kd [10] of 0.856 nM, a Kd [2, 25] of 17.6 nM and a Kd [3, 25] of 18.1 nM. It also gave a Kd [11] of at least 78000 nM, a Kd [12] of at least 77900 nM and a Kd [13] of at least 77900 nM. It also gave a Kd [14] of at least 77700 nM, a Kd [15] of at least 64600 nM and a Kd [16, 25] of 147 nM. For the same sequence, the Kd [5, 25] was 521 nM, the Kd [6, 25] was 14600 nM and the Kd [7, 25] was 14600 nM. The Kd [9, 25] was at least 36700 nM and the Kd [8, 25] was at least 78100 nM.
WMTTEDMLSV was tested, and the Kd [1, 23] was 18.8 nM, the Kd [2, 24] was 8.93 nM and the Kd [3, 24] was 10.6 nM. For the same sequence, the Kd [4, 23] was 593 nM.
VPSVNEYHML gave a Kd [5, 25] of 1210 nM, a Kd [6, 25] of 4410 nM and a Kd [7, 25] of at least 52200 nM. For the same sequence, the Kd [9, 25] was 2170 nM and the Kd [8, 25] was at least 69900 nM.
RPALVFDIT showed a Kd [21, 39] of 2910 nM, a Kd [6, 39] of 2080 nM and a Kd [7, 39] of at least 30700 nM. For the same sequence, the Kd [9, 39] was at least 50200 nM and the Kd [8, 39] was 95.4 nM.
SVLLWMASV was tested, and the Kd [1, 23] was 6.33 nM, the Kd [3, 23] was 15.7 nM and the Kd [4, 23] was 20.9 nM.
For VILFIMFMLI, the Kd [10] was 722 nM, the Kd [2, 25] was 769 nM and the Kd [3, 25] was 1410 nM. For the same sequence, the Kd [11] was 81 nM, the Kd [12] was 353 nM and the Kd [13] was 128 nM. It also gave a Kd [14] of 514 nM, a Kd [15] of 113 nM and a Kd [16, 25] of 1080 nM. The Kd [5, 25] was 5480 nM, the Kd [7, 25] was 7570 nM and the Kd [9, 25] was 1700 nM. For the same sequence, the Kd [8, 25] was 804 nM.
LMMRTTWAL was tested, and the Kd [1, 32] was 1.35 nM, the Kd [2, 32] was 0.47 nM and the Kd [3, 32] was 8.05 nM. For the same sequence, the Kd [4, 32] was 35.9 nM, the Kd [21, 32] was 1.32 nM and the Kd [22] was 0.12 nM.
In the case of TIMAAILAYT, the Kd [1, 32] is reported as 33.4 nM, the Kd [2, 32] is reported as 9.23 nM and the Kd [4, 32] is reported as 12200 nM. For the same sequence, the Kd [16, 32] was 86.8 nM.
QLWATLLSL was tested, and the Kd [1, 23] was 1.16 nM and the Kd [4, 23] was 50.6 nM.
